From US9394352B2, “Immunogenic POTE peptides and methods of use” (The United States of America, as represented by the …, priority 2010, dated 2016)
Entries after “also recorded” stand apart in the source; their conditions may differ.

How the values were obtained:
[1] = biological target: T1, HLA-A2 molecule (Homo sapiens, UniProt P04439, D140Y/D185E/D98H/E176V/E277Q/G131W/G231S/I119V/I121R/I166T/I218V/L300P/L318F/N151K/N90K/P208A/P217A/Q86G/Q94H/R138H/R169H/T345S); assay: T2 binding assay (HLA-A2 up-regulation on TAP-deficient T2 cells); details: for binding affinity for the HLA-A2 molecule (in words): T2 binding assay; for FI0.5: peptide concentration that increases HLA-A2.1 expression by 50% over no peptide
T1 construct: The T2 cell line is deficient for TAP1 and TAP2 transporter proteins and expresses low levels of HLA-A2; endogenous in cells; host or cells: T2 cell line (TAP1/TAP2-deficient)
Protocol: FIG. 1 is a graph showing binding affinity of POTE peptides to HLA-A2 molecules. Peptides were dissolved in DMSO in double-distilled water and different concentrations of peptides were added into the culture of TAP-deficient T2 cells. After overnight culture of the cells in medium supplemented with β2-microglobulin, cells were stained with anti-HLA-A2. HLA-A2 expression was quantified as fluorescence index (FI) according to the following formula: FI=[(mean fluorescence intensity with peptide−mean fluorescence intensity without peptide)/mean fluorescence intensity without peptide]. Background fluorescence without BB7.2 was subtracted for each individual value. To compare the different peptides, FI0.5 (the peptide concentration that increases HLA-A2.1 expression by 50% over no peptide control background) was calculated from the titration curve for each peptide.
FIGS. 2A-2C are graphs showing binding affinity of substituted POTE peptides to HLA-A2 molecules. Shown are binding affinities of the substituted POTE 252 peptides (FIG. 2A), the substituted POTE 553 peptides (FIG. 2B) and the substituted POTE 323 peptides (FIG. 2C) to HLA-A2 molecules. Different concentrations of peptides were added into the culture of TAP-deficient T2 cells. After overnight culture of the cells in medium supplemented with β2-microglobulin, cells were stained with anti-HLA-A2 antibody.
Peptide binding capacity to the HLA-A2 molecule was measured by using the T2 cell line according to a protocol described previously (Peters et al., Bioinformatics 19(14):1765-1772, 2003). T2 cells (3×10^5 cells/well) were incubated overnight in 96-well plates with culture medium (1:1 mixture of RPMI 1640/Eagle-Hank's amino acid containing 2.5% fetal bovine serum, 100 U/ml penicillin, and 100 μg/ml streptomycin) with 10 μg/ml β2-microglobulin (Sigma) and different titrated concentrations of peptides (starting from 100 μM with 2-fold serial dilution) as shown in the figures to determine the concentration giving a 50% increasing in binding. Cells were washed once with cold HBSS containing 0.1% BSA and incubated for 30 minutes at 4° C. with anti-HLA-A2.1 BB7.2 monoclonal antibody (1:40 dilution from hybridoma supernatant). After washing, cells were stained with FITC-labeled goat anti-mouse immunoglobulin (BD, San Jose, Calif.), and the level of HLA expression was measured by flow cytometry. HLA-A2 expression was quantified as fluorescence index (FI) according to the following formula: FI=[(geometric mean fluorescence intensity with peptide-geometric mean fluorescence intensity without peptide)/geometric mean fluorescence intensity without peptide]. Background fluorescence without BB7.2 was subtracted for each individual value. To compare the different peptides, FI0.5, the peptide concentration that increases HLA-A2.1 expression by 50% over no peptide control background, was calculated from the titration curve for each peptide.

[2] = test system: IFN-γ secreting spleen cells; assay: ex vivo IFN-γ ELISPOT assay on splenocytes of peptide-immunized AAD mice; format: in vivo; details: for IFN-γ response (ELISPOT spots) on stimulation with the immunizing peptide: AAD mice immunized s.c., splenocytes pooled from three mice two weeks after boost
Protocol: (§1) FIGS. 3A and 3B are graphs showing immunogenicity of the wild type and enhanced POTE 252 epitopes in AAD mice. AAD mice were immunized subcutaneously with a mixture of peptide and cytokines in adjuvant as described in Example 1. (FIG. 3A) Two weeks after the second boost, splenocytes pooled from three mice were restimulated with splenocytes of naïve AAD mice pulsed with 1.0 μM of each peptide at different effector to target (E/T) ratios. Cells were cultured in anti-mouse IFN-γ antibody coated ELISPOT™ plates. After overnight culture, biotinylated anti-mouse IFN-γ antibodies were added to each well. ELISPOT™ substrates were added to develop the color and spots were counted by an ELISPOT™ reader (AID ELISPOT™ reader system). Figures show numbers of spots per million cells. (FIG. 3B) CTL cross-reactivity on each peptide. Two weeks after the second boost, pooled spleen cells from three mice were restimulated with irradiated splenocytes pulsed with 1.0 μM of peptide for 7 days. In a 4-hour ^51Cr release assay, CIR.AAD cells were pulsed with 1.0 μM of peptide and labeled with ^51Cr. After washing three times, target cells were mixed with different numbers of effector cells and then cultured for 4 hours before harvesting.
(§2) FIGS. 4A-4D are graphs showing immunogenicity of the wild type and enhanced POTE 553 epitopes in AAD mice. AAD mice were immunized subcutaneously with a mixture of peptide and cytokines in adjuvant. (FIGS. 4A and 4B) Two weeks after the second boost, splenocytes pooled from three mice were restimulated with splenocytes of naïve AAD mice pulsed with 10 nM to 1.0 μM of each peptide at different E/T ratios. Cells were cultured in anti-mouse IFN-γ antibody coated ELISPOT™ plates. After overnight culture, biotinylated anti-mouse IFN-γ antibodies were added to each well. ELISPOT™ substrates were added to develop color and spots were counted by an ELISPOT™ reader (AID ELISPOT™ reader system). Figures show numbers of spots per million cells. (FIGS. 4C and 4D) CTL cross-reactivity on each peptide. Two weeks after the second boost, pooled spleen cells from three mice were restimulated with irradiated splenocytes pulsed with 1.0 μM of peptide for 7 days. In a 4-hour ^51Cr release assay, CIR.AAD cells were pulsed with 1.0 μM of peptide and labeled with ^51Cr. After washing three times, target cells were mixed with different numbers of effector cells and then cultured for 4 hours before harvesting.
(§3) FIGS. 5A and 5B are graphs showing immunogenicity of the POTE 272 epitope in AAD mice. AAD mice were immunized subcutaneously with a mixture of peptide and cytokines in adjuvant. (FIG. 5A) Two weeks after the second boost, splenocytes pooled from three mice were restimulated with splenocytes of naïve AAD mice pulsed with 1.0 μM POTE 272 peptide at different E/T ratios. Cells were cultured in anti-mouse IFN-γ antibody coated ELISPOT™ plates. After overnight culture, biotinylated anti-mouse IFN-γ antibodies were added in each well. ELISPOT™ substrates were added to develop color and spots were counted by an ELISPOT™ reader (AID ELISPOT™ reader system). Figures show numbers of spots per million cells. (FIG. 5B) CTL reactivity on POTE 272 peptide. Two weeks after the second boost, pooled spleen cells from three mice were restimulated with irradiated splenocytes pulsed with 1.0 μM POTE 272 peptide for 7 days. In a 4-hour ^51Cr release assay, CIR.AAD cells were pulsed with 1.0 μM POTE 272 peptide and labeled with ^51Cr. After washing three times, target cells were mixed with different numbers of effector cells and then cultured for 4 hours before harvesting.
(§4) FIGS. 6A and 6B are graphs showing immunogenicity of the wild type and enhanced POTE 323 epitopes in AAD mice. AAD mice were immunized subcutaneously with a mixture of peptide and cytokines in adjuvant. (FIG. 6A) Two weeks after the second boost, splenocytes pooled from three mice were restimulated with splenocytes of naïve AAD mice pulsed with 1.0 μM of each peptide at different E/T ratios. […]

[3] = test system: C1R.AAD cells pulsed with peptide; assay: 4-hour 51Cr release CTL assay after one week in vitro stimulation; format: cell-based, human; details: CTLs from immunized AAD mice, restimulated 7 days with 1.0 μM peptide; targets pulsed with 1.0 μM peptide
Protocol: as §1, §2, §3, §4

[4] = wild-type peptides, Table 1 / FIG. 1
[5] = substituted peptides and their wild types, Table 2 / FIGS. 2A-2C

GLTPLLLGV [POTE 272-280, unmodified 9-mer peptide, residues 272-280 of human POTE]
binding affinity for the HLA-A2 molecule (in words) [1]: strongest HLA-A2 binding affinity
FI0.5 [1, 4]: ~0.9 µM
IFN-γ response (ELISPOT spots) on stimulation with the immunizing peptide [2]: induced significant IFN-γ responses
CTL lysis of peptide-pulsed target cells [3]: lysed target cells pulsed with POTE 272

KIFEEIESV [POTE 553-3F, modified POTE 553 peptide, phenylalanine at position 3]
FI0.5 [1, 5]: 0.3 µM

KILEEIASV [POTE-553-7A, modified POTE 553 peptide, alanine at position 7]
FI0.5 [1, 5]: 0.2 µM

KILEEIESV [POTE 553-561, unmodified 9-mer peptide, residues 553-561 of human POTE]
binding affinity for the HLA-A2 molecule (in words) [1]: strongest HLA-A2 binding affinity; also recorded: intermediate binders
FI0.5 [1, 5]: 2.6 µM
FI0.5 [1, 4]: ~5.6 µM
IFN-γ response (ELISPOT spots) on stimulation with the immunizing peptide [2]: did not induce any significant IFN-γ responses
CTL lysis of peptide-pulsed target cells [3]: not any significant detectable target cell lysis

KLAAKALLL [POTE 252-3A, modified POTE 252 peptide, alanine at position 3]
FI0.5 [1, 5]: 16.9 µM

KLFAKALLL [POTE 252-3F, modified POTE 252 peptide, phenylalanine at position 3]
FI0.5 [1, 5]: 1.5 µM

KLLEEIESV [POTE 553-2L, modified POTE 553 peptide, leucine at position 2]
FI0.5 [1, 5]: 0.1 µM
IFN-γ ELISPOT cross-reactive response to the wild type peptide ([2]; AAD mice immunized s.c. with the enhanced peptide): no cross-reactive response to wild type peptide was detected
IFN-γ response (ELISPOT spots) on stimulation with the immunizing peptide [2]: induced some extent of IFN-γ responses only after stimulation with the same peptide
CTL lysis of peptide-pulsed target cells [3]: did not lyse target cells pulsed with POTE 553-2L

KLMAKAALL [POTE 252-7A, modified POTE 252 peptide, alanine at position 7]
FI0.5 [1, 5]: 4 µM

LLAEQNVDV [POTE 323-3A, modified POTE 323 peptide, alanine at position 3]
FI0.5 [1, 5]: 0.4 µM

LLLEQNADV [POTE 323-7A, modified POTE 323 peptide, alanine at position 7]
FI0.5 [1, 5]: 2.78 µM

LLLEQNVDV [POTE 323-331, unmodified 9-mer peptide, residues 323-331 of human POTE]
binding affinity for the HLA-A2 molecule (in words) [1]: intermediate binders; also recorded: strongest binding affinity
FI0.5 [1, 5]: 0.3 µM
FI0.5 [1, 4]: ~0.8 µM
IFN-γ response (ELISPOT spots) on stimulation with the immunizing peptide [2]: induced some IFN-γ responses after stimulation with the identical peptide
IFN-γ response over background level ([2]; AAD mice, ELISPOT): less than 2 fold
CTL lysis of peptide-pulsed target cells [3]: did not lyse target cells pulsed with POTE 323

VLMLLEHGA [POTE 222-230]
binding affinity for the HLA-A2 molecule (in words) [1]: weak binder
FI0.5 [1, 4]: approximately 42.4 μM

YLLEQNVDV [POTE 323-1Y, modified POTE 323 peptide, tyrosine at position 1]
FI0.5 [1, 5]: 0.25 µM

YLMAKALLL [POTE 252-1Y, modified POTE 252 peptide, tyrosine at position 1]
FI0.5 [1, 5]: 0.9 µM
IFN-γ response (ELISPOT spots) on stimulation with the immunizing peptide [2]: no significant IFN-γ responses were detected
CTL lysis of peptide-pulsed target cells [3]: not detectable
